assay: Thermostability of NTR and mutants (3H-neurotensin binding); format: physicochemical; settings: Ligand(+) format

Molecule | thermostability, heated in the presence of 3H-neurotensin
E166A: NTR point mutant (protein, UniProt P20789 1-424, looked up, variant E166A) Neurotensin receptor type 1: MHLNSSVPQGTPGEPDAQPFSGPQSEMEATFLALSLSNGSGNTSESDTAGPNSDLDVNTDIYSKVLVTAIYLALFVVGTVGNSVTAFTLARKKSLQSLQSTVHYHLGSLALSDLLILLLAMPVELYNFIWVHHPWAFGDAGCRGYYFLRDACTYATALNVASLSVARYLAICHPFKAKTLMSRSRTKKFISAIWLASALLAIPMLFTMGLQNRSGDGTHPGGLVCTPIVDTATVKVVIQVNTFMSFLFPMLVISILNTVIANKLTVMVHQAAEQGRVCTVGTHNGLEHSTFNMTIEPGRVQALRHGVLVLRAVVIAFVVCWLPYHVRRLMFCYISDEQWTTFLFDFYHYFYMLTNALFYVSSAINPILYNLVSANFRQVFLSTLACLCPGWRHRRKKRPTFSRKPNSMSSNHAFSTSATRETLY | improved thermostability
L308A: NTR point mutant (protein, UniProt P20789 1-424, looked up, variant L308A) Neurotensin receptor type 1: MHLNSSVPQGTPGEPDAQPFSGPQSEMEATFLALSLSNGSGNTSESDTAGPNSDLDVNTDIYSKVLVTAIYLALFVVGTVGNSVTAFTLARKKSLQSLQSTVHYHLGSLALSDLLILLLAMPVELYNFIWVHHPWAFGDAGCRGYYFLRDACTYATALNVASLSVERYLAICHPFKAKTLMSRSRTKKFISAIWLASALLAIPMLFTMGLQNRSGDGTHPGGLVCTPIVDTATVKVVIQVNTFMSFLFPMLVISILNTVIANKLTVMVHQAAEQGRVCTVGTHNGLEHSTFNMTIEPGRVQALRHGVAVLRAVVIAFVVCWLPYHVRRLMFCYISDEQWTTFLFDFYHYFYMLTNALFYVSSAINPILYNLVSANFRQVFLSTLACLCPGWRHRRKKRPTFSRKPNSMSSNHAFSTSATRETLY | improved thermostability
I260A: NTR point mutant (protein, UniProt P20789 1-424, looked up, variant I260A) Neurotensin receptor type 1: MHLNSSVPQGTPGEPDAQPFSGPQSEMEATFLALSLSNGSGNTSESDTAGPNSDLDVNTDIYSKVLVTAIYLALFVVGTVGNSVTAFTLARKKSLQSLQSTVHYHLGSLALSDLLILLLAMPVELYNFIWVHHPWAFGDAGCRGYYFLRDACTYATALNVASLSVERYLAICHPFKAKTLMSRSRTKKFISAIWLASALLAIPMLFTMGLQNRSGDGTHPGGLVCTPIVDTATVKVVIQVNTFMSFLFPMLVISILNTVAANKLTVMVHQAAEQGRVCTVGTHNGLEHSTFNMTIEPGRVQALRHGVLVLRAVVIAFVVCWLPYHVRRLMFCYISDEQWTTFLFDFYHYFYMLTNALFYVSSAINPILYNLVSANFRQVFLSTLACLCPGWRHRRKKRPTFSRKPNSMSSNHAFSTSATRETLY | improved thermostability
T294A: NTR point mutant (protein, UniProt P20789 1-424, looked up, variant T294A) Neurotensin receptor type 1: MHLNSSVPQGTPGEPDAQPFSGPQSEMEATFLALSLSNGSGNTSESDTAGPNSDLDVNTDIYSKVLVTAIYLALFVVGTVGNSVTAFTLARKKSLQSLQSTVHYHLGSLALSDLLILLLAMPVELYNFIWVHHPWAFGDAGCRGYYFLRDACTYATALNVASLSVERYLAICHPFKAKTLMSRSRTKKFISAIWLASALLAIPMLFTMGLQNRSGDGTHPGGLVCTPIVDTATVKVVIQVNTFMSFLFPMLVISILNTVIANKLTVMVHQAAEQGRVCTVGTHNGLEHSTFNMAIEPGRVQALRHGVLVLRAVVIAFVVCWLPYHVRRLMFCYISDEQWTTFLFDFYHYFYMLTNALFYVSSAINPILYNLVSANFRQVFLSTLACLCPGWRHRRKKRPTFSRKPNSMSSNHAFSTSATRETLY | improved thermostability
M250A: NTR point mutant (protein, UniProt P20789 1-424, looked up, variant M250A) Neurotensin receptor type 1: MHLNSSVPQGTPGEPDAQPFSGPQSEMEATFLALSLSNGSGNTSESDTAGPNSDLDVNTDIYSKVLVTAIYLALFVVGTVGNSVTAFTLARKKSLQSLQSTVHYHLGSLALSDLLILLLAMPVELYNFIWVHHPWAFGDAGCRGYYFLRDACTYATALNVASLSVERYLAICHPFKAKTLMSRSRTKKFISAIWLASALLAIPMLFTMGLQNRSGDGTHPGGLVCTPIVDTATVKVVIQVNTFMSFLFPALVISILNTVIANKLTVMVHQAAEQGRVCTVGTHNGLEHSTFNMTIEPGRVQALRHGVLVLRAVVIAFVVCWLPYHVRRLMFCYISDEQWTTFLFDFYHYFYMLTNALFYVSSAINPILYNLVSANFRQVFLSTLACLCPGWRHRRKKRPTFSRKPNSMSSNHAFSTSATRETLY | improved thermostability
G306A: NTR point mutant (protein, UniProt P20789 1-424, looked up, variant G306A) Neurotensin receptor type 1: MHLNSSVPQGTPGEPDAQPFSGPQSEMEATFLALSLSNGSGNTSESDTAGPNSDLDVNTDIYSKVLVTAIYLALFVVGTVGNSVTAFTLARKKSLQSLQSTVHYHLGSLALSDLLILLLAMPVELYNFIWVHHPWAFGDAGCRGYYFLRDACTYATALNVASLSVERYLAICHPFKAKTLMSRSRTKKFISAIWLASALLAIPMLFTMGLQNRSGDGTHPGGLVCTPIVDTATVKVVIQVNTFMSFLFPMLVISILNTVIANKLTVMVHQAAEQGRVCTVGTHNGLEHSTFNMTIEPGRVQALRHAVLVLRAVVIAFVVCWLPYHVRRLMFCYISDEQWTTFLFDFYHYFYMLTNALFYVSSAINPILYNLVSANFRQVFLSTLACLCPGWRHRRKKRPTFSRKPNSMSSNHAFSTSATRETLY | improved thermostability
V229A: NTR point mutant (protein, UniProt P20789 1-424, looked up, variant V229A) Neurotensin receptor type 1: MHLNSSVPQGTPGEPDAQPFSGPQSEMEATFLALSLSNGSGNTSESDTAGPNSDLDVNTDIYSKVLVTAIYLALFVVGTVGNSVTAFTLARKKSLQSLQSTVHYHLGSLALSDLLILLLAMPVELYNFIWVHHPWAFGDAGCRGYYFLRDACTYATALNVASLSVERYLAICHPFKAKTLMSRSRTKKFISAIWLASALLAIPMLFTMGLQNRSGDGTHPGGLVCTPIADTATVKVVIQVNTFMSFLFPMLVISILNTVIANKLTVMVHQAAEQGRVCTVGTHNGLEHSTFNMTIEPGRVQALRHGVLVLRAVVIAFVVCWLPYHVRRLMFCYISDEQWTTFLFDFYHYFYMLTNALFYVSSAINPILYNLVSANFRQVFLSTLACLCPGWRHRRKKRPTFSRKPNSMSSNHAFSTSATRETLY | improved thermostability
R183A: NTR point mutant (protein, UniProt P20789 1-424, looked up, variant R183A) Neurotensin receptor type 1: MHLNSSVPQGTPGEPDAQPFSGPQSEMEATFLALSLSNGSGNTSESDTAGPNSDLDVNTDIYSKVLVTAIYLALFVVGTVGNSVTAFTLARKKSLQSLQSTVHYHLGSLALSDLLILLLAMPVELYNFIWVHHPWAFGDAGCRGYYFLRDACTYATALNVASLSVERYLAICHPFKAKTLMSASRTKKFISAIWLASALLAIPMLFTMGLQNRSGDGTHPGGLVCTPIVDTATVKVVIQVNTFMSFLFPMLVISILNTVIANKLTVMVHQAAEQGRVCTVGTHNGLEHSTFNMTIEPGRVQALRHGVLVLRAVVIAFVVCWLPYHVRRLMFCYISDEQWTTFLFDFYHYFYMLTNALFYVSSAINPILYNLVSANFRQVFLSTLACLCPGWRHRRKKRPTFSRKPNSMSSNHAFSTSATRETLY | improved thermostability
1253A: NTR point mutant, Ile 253 to Ala (protein, UniProt P20789 1-424, looked up, variant I253A) Neurotensin receptor type 1: MHLNSSVPQGTPGEPDAQPFSGPQSEMEATFLALSLSNGSGNTSESDTAGPNSDLDVNTDIYSKVLVTAIYLALFVVGTVGNSVTAFTLARKKSLQSLQSTVHYHLGSLALSDLLILLLAMPVELYNFIWVHHPWAFGDAGCRGYYFLRDACTYATALNVASLSVERYLAICHPFKAKTLMSRSRTKKFISAIWLASALLAIPMLFTMGLQNRSGDGTHPGGLVCTPIVDTATVKVVIQVNTFMSFLFPMLVASILNTVIANKLTVMVHQAAEQGRVCTVGTHNGLEHSTFNMTIEPGRVQALRHGVLVLRAVVIAFVVCWLPYHVRRLMFCYISDEQWTTFLFDFYHYFYMLTNALFYVSSAINPILYNLVSANFRQVFLSTLACLCPGWRHRRKKRPTFSRKPNSMSSNHAFSTSATRETLY | improved thermostability
A177L: NTR point mutant (protein, UniProt P20789 1-424, looked up, variant A177L) Neurotensin receptor type 1: MHLNSSVPQGTPGEPDAQPFSGPQSEMEATFLALSLSNGSGNTSESDTAGPNSDLDVNTDIYSKVLVTAIYLALFVVGTVGNSVTAFTLARKKSLQSLQSTVHYHLGSLALSDLLILLLAMPVELYNFIWVHHPWAFGDAGCRGYYFLRDACTYATALNVASLSVERYLAICHPFKLKTLMSRSRTKKFISAIWLASALLAIPMLFTMGLQNRSGDGTHPGGLVCTPIVDTATVKVVIQVNTFMSFLFPMLVISILNTVIANKLTVMVHQAAEQGRVCTVGTHNGLEHSTFNMTIEPGRVQALRHGVLVLRAVVIAFVVCWLPYHVRRLMFCYISDEQWTTFLFDFYHYFYMLTNALFYVSSAINPILYNLVSANFRQVFLSTLACLCPGWRHRRKKRPTFSRKPNSMSSNHAFSTSATRETLY | improved thermostability
G215A: NTR point mutant (protein, UniProt P20789 1-424, looked up, variant G215A) Neurotensin receptor type 1: MHLNSSVPQGTPGEPDAQPFSGPQSEMEATFLALSLSNGSGNTSESDTAGPNSDLDVNTDIYSKVLVTAIYLALFVVGTVGNSVTAFTLARKKSLQSLQSTVHYHLGSLALSDLLILLLAMPVELYNFIWVHHPWAFGDAGCRGYYFLRDACTYATALNVASLSVERYLAICHPFKAKTLMSRSRTKKFISAIWLASALLAIPMLFTMGLQNRSADGTHPGGLVCTPIVDTATVKVVIQVNTFMSFLFPMLVISILNTVIANKLTVMVHQAAEQGRVCTVGTHNGLEHSTFNMTIEPGRVQALRHGVLVLRAVVIAFVVCWLPYHVRRLMFCYISDEQWTTFLFDFYHYFYMLTNALFYVSSAINPILYNLVSANFRQVFLSTLACLCPGWRHRRKKRPTFSRKPNSMSSNHAFSTSATRETLY | improved thermostability

same assay, conditions: heated in the absence of the agonist

Molecule | thermostability, 3H-neurotensin (agonist) binding after the heating step
A356L: NTR point mutant (protein, UniProt P20789 1-424, looked up, variant A356L) Neurotensin receptor type 1: MHLNSSVPQGTPGEPDAQPFSGPQSEMEATFLALSLSNGSGNTSESDTAGPNSDLDVNTDIYSKVLVTAIYLALFVVGTVGNSVTAFTLARKKSLQSLQSTVHYHLGSLALSDLLILLLAMPVELYNFIWVHHPWAFGDAGCRGYYFLRDACTYATALNVASLSVERYLAICHPFKAKTLMSRSRTKKFISAIWLASALLAIPMLFTMGLQNRSGDGTHPGGLVCTPIVDTATVKVVIQVNTFMSFLFPMLVISILNTVIANKLTVMVHQAAEQGRVCTVGTHNGLEHSTFNMTIEPGRVQALRHGVLVLRAVVIAFVVCWLPYHVRRLMFCYISDEQWTTFLFDFYHYFYMLTNLLFYVSSAINPILYNLVSANFRQVFLSTLACLCPGWRHRRKKRPTFSRKPNSMSSNHAFSTSATRETLY | small but significant increase in thermostability
